Source: patent US20260250418A1

Assays:
[1] = molecular target: monkey MET on NIH3T3-fasMET cells (monkey) (UniProt A0M8R7); test: flow cytometry, transfected NIH3T3 cells
[2] = molecular target: human MET on NIH3T3-hMET cells (human) (UniProt P08581); test: flow cytometry, transfected NIH3T3 cells
[3] = molecular target: mouse HER3 on CHO-mHER3 cells (mouse) (UniProt Q61526); test: flow cytometry, transfected CHO cells
[4] = molecular target: monkey (Macaca fascicularis) HER3 on CHO-fasHER3 cells (monkey (Macaca fascicularis)); test: flow cytometry, transfected CHO cells
[5] = molecular target: human HER3 on CHO-hHER3 cells (human) (UniProt P21860); test: flow cytometry, transfected CHO cells
[6] = molecular target: dog HER3 on CHO-dHER3 cells (dog); test: flow cytometry, transfected CHO cells

Sequence of human MET on NIH3T3-hMET cells (human) (P08581 25-1390 limits assumed): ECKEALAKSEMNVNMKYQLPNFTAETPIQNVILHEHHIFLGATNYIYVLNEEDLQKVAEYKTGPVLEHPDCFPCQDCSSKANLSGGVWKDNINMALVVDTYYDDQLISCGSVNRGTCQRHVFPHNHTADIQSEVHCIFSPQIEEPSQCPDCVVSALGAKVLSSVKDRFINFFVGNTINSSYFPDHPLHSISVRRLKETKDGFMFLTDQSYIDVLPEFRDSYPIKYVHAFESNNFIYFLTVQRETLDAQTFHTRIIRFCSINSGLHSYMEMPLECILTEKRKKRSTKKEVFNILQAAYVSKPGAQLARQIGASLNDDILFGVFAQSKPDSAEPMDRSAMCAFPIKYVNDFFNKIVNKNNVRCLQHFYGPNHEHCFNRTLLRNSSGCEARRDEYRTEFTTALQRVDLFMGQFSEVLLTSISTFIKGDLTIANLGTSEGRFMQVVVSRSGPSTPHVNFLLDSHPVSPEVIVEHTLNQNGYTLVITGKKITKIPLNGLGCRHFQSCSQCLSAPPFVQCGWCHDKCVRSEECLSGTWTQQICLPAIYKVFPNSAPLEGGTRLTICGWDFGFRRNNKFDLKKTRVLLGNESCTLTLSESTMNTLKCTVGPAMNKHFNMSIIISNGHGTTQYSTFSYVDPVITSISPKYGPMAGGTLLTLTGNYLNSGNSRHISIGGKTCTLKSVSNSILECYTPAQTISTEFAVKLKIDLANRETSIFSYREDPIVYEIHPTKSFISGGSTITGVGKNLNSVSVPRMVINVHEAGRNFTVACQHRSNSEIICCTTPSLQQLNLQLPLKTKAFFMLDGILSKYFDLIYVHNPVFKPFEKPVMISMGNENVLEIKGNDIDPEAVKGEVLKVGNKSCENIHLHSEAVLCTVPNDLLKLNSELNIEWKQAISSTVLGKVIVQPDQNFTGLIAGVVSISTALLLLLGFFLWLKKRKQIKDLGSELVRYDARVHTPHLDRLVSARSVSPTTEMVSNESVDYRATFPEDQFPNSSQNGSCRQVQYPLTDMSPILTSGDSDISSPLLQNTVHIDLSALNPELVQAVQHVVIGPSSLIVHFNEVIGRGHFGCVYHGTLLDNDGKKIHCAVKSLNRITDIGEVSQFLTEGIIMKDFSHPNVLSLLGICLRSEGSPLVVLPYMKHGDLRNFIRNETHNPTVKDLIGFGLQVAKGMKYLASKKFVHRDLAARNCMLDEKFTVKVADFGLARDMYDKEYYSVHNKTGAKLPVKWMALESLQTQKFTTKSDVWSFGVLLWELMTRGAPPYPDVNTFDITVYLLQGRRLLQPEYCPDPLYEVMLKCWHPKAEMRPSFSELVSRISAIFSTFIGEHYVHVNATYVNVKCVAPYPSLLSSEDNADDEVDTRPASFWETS
Sequence of monkey MET on NIH3T3-fasMET cells (monkey) (A0M8R7 25-1381 S170N/I621T limits assumed): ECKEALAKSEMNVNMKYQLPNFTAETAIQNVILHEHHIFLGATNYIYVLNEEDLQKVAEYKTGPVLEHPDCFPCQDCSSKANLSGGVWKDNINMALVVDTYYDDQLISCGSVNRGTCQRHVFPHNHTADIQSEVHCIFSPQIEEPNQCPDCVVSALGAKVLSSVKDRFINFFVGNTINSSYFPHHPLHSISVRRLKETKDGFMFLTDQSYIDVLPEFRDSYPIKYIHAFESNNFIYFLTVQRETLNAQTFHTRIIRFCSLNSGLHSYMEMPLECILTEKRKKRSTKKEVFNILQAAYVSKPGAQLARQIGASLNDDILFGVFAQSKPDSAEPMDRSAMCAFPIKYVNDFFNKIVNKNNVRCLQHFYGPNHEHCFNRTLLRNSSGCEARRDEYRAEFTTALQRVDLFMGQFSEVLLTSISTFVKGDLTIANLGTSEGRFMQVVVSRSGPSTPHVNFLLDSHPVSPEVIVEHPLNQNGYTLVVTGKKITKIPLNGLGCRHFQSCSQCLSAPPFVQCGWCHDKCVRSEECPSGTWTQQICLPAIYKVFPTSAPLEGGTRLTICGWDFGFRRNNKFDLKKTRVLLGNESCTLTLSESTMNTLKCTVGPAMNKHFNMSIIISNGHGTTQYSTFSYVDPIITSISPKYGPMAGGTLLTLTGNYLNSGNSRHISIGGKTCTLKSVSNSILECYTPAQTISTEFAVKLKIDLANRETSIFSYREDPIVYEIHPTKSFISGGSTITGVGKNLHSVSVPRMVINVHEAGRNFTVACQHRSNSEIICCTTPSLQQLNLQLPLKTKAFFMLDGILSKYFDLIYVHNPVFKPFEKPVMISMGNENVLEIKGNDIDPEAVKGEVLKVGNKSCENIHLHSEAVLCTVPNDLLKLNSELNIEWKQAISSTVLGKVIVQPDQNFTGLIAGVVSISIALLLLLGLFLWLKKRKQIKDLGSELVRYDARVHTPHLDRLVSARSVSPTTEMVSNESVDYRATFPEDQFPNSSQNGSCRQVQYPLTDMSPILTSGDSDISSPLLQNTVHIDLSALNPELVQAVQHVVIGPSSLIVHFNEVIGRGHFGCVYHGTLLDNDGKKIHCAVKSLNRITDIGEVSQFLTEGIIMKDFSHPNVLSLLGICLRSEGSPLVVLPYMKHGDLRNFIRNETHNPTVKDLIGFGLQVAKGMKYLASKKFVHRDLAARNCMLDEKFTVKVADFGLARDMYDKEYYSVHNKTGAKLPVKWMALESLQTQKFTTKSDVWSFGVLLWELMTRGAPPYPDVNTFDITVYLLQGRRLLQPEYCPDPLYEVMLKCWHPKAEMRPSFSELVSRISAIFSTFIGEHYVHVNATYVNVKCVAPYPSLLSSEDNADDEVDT
Sequence of mouse HER3 on CHO-mHER3 cells (mouse) (Q61526 20-641): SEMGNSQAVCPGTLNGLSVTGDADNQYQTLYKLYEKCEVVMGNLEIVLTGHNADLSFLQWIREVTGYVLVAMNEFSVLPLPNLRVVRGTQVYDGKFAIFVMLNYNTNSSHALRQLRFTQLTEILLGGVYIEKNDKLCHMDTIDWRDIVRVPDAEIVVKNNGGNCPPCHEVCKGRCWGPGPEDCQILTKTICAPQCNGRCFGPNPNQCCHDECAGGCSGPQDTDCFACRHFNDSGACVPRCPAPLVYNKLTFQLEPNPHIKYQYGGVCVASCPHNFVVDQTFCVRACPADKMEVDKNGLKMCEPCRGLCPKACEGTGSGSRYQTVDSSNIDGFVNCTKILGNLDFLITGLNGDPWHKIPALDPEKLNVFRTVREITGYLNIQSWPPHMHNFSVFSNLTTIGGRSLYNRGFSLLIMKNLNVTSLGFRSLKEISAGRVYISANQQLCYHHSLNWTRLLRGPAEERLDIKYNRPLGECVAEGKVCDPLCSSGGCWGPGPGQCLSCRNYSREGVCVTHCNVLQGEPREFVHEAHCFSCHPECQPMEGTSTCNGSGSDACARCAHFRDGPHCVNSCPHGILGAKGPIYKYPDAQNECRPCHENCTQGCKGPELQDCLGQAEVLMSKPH

| Positive Cells [1] [%] | Positive Cells [2] [%] | Percentage of Positive Cells [3] [%] | Percentage of Positive Cells [4] [%] | Positive Cells [4] [%] | Percentage of Positive Cells [5] [%] | Positive Cells [5] [%] | Percentage of Positive Cells [6] [%] | Substance |
| --- | --- | --- | --- | --- | --- | --- | --- | --- |
| 0.5 | 3.9 | 0.2 | 0.2 | 3.2 | 0.4 | 2.1 | 1 | NC |
| 0.6 | 2.4 | 0.5 | 0.9 | 2.7 | 1.7 | 2.8 | 1.6 | NC + secondary antibody |
